Experimental data as given in patent publication US20120022228A1, “PURIFICATION OF AMPHOTERIC PRODUCTS, OR OF PRODUCTS LIABLE TO BE CONVERTED INTO AMPHOTERIC PRODUCTS” (CENTRE NATIONAL DE LA RECHERCHE SCIENTIFIQUE, priority 2010, published 2012).
Peptide text beside a SMILES is read from it.

Key:
Format in all cases: physicochemical
[1] = Partition of dipeptides between organic and aqueous phase as a function of percentage of deprotonation of the exchanger (FIG. 4); conditions: exchanger DEHPA deprotonated to 30%
From the text: FIG. 4 is a graphic representing the solubility of dipeptides in either an organic or an aqueous phase in function of the percentage of deprotonation of an exchanger dissolved in […]. In abscissae, the percentage of deprotonation of the exchanger is represented; said abscissae are graduated from 0 to 30%. The ordinates represent a partition coefficient between the organic phase and the aqueous phase, said ordinates being graduated from 0 to 1.
The Influence of the percentage of deprotonated exchanger over the CPC purification of dipeptides GG, GY and LV is determined. […]

[2] = Partition coefficient of SF328 evaluated by TLC in different biphasic solvent systems
Description: Partition coefficient of SF328 was evaluated by TLC in different biphasic solvent systems. In the elution mode, it is required that the KD value of the compound of interest lies between 0.2 and 5 (preferentially about 1).

[3] = CPC run in elution mode, stability of SF328 in the solvent system; conditions: MtBE/CH3CN/BuOH/Water 1% TFA (2:1:2:5, v/v), Example 54
Description: Only the system MtBE/CH3CN/BuOH/Water 1% TFA (2:1:2:5, v/v) was tested. The experimental conditions were: • Rotation speed: 1300 rpm. • Sample injected: 100 mg. • Elution mode: ascending. • Flow rate: 8 ml/min.
This system causes the degradation of SF328.

## CC(C)C[C@H](N)C(=O)N[C@H](C(=O)O)C(C)C [LV, LeucylValine] (H-Leu-Val-OH)
[1]
  peptide extraction (partition organic/aqueous phase): improvement

## H-Asp-Glu-Asn-Pro-Val-Val-His-Phe-Phe-Lys-Asn-Ile-Val-Thr-Pro-Arg-Thr-OH (H-DENPVVHFFKNIVTPRT-OH) [SF328]
[2]; BuOH/Acetic acid/Water (4:1:5, v/v)
  Evaluation KD: average
[2]; BuOH/Acetic acid/Water (5:1:4, v/v)
  Evaluation KD: poor
[2]; MtBE/CH3CN/BuOH/Water 1% TFA (2:1:2:5, v/v)
  Evaluation KD: good
[2]; MtBE/CH3CN/Water (2:2:3, v/v)
  Evaluation KD: poor
[2]; MtBE/CH3CN/Water (3:2:5, v/v)
  Evaluation KD: average
[3]
  Stability in the solvent system: degradation
